# Assay results: patent publication US12618845B2, “Methods and compositions for protein sequencing” (Quantum-Si Incorporated, priority 2018, dated 2026)
# Like-named read-outs stand apart in the source and are kept apart here.
# System: peptide substrates
# Format: biochemical
molecule,measurement,setting,value
VPr: Vibrio proteolyticus aminopeptidase (protein) MPPITQQATVTAWLPQVDASQITGTISSLESFTNRFYTTTSGAQASDWIASEWQALSASLPNASVKQVSHSGYNQKSVVMTITGSEAPDEWIVIGGHLDSTIGSHTNEQSVAPGADDDASGIAAVTEVIRVLSENNFQPKRSIAFMAYAAEEVGLRGSQDLANQYKSEGKNVVSALQLDMTNYKGSAQDVVFITDYTDSNFTQYLTQLMDEYLPSLTYGFDTCGYACSDHASWHNAGYPAAMPFESKFNDYNPRIHTTQDTLANSDPTGSHAKKFTQLGLAYAIEMGSATGDTPTPGNQ,HPLC Assay Conv,"substrate […]1 (SEQ ID NO: 11), 600 μM Peptide, 0.08 μM enzyme, 10 mM 5Mg(OAc)2, 0 mM MOPS pH 8, 60 mM KOAc, RT/0.5 hr",5%
same,HPLC Assay Conv,"substrate […]1 (SEQ ID NO: 11), 600 μM Peptide, 0.8 μM enzyme, 10 mM Mg(OAc)2, 50 mM MOPS pH 8, 60 mM KOAc, RT/0.5 hr",50%
same,HPLC Assay Conv,"substrate […]1 (SEQ ID NO: 11), 600 μM Peptide, 8 μM enzyme, 10 mM Mg(OAc)2, 50 mM MOPS pH 8, 60 mM KOAc, RT/0.5 hr",100%
same,HPLC Assay Conv,"substrate […]1 (SEQ ID NO: 11), 600 μM Peptide, 8 μM enzyme, 10 mM Mg(OAc)2, 50 mM MOPS pH 8, RT/0.5 hr",100%
same,HPLC Assay Conv,"substrate […]1 (SEQ ID NO: 13), 300 μM Peptide, 8 μM enzyme, 10 mM Mg(OAc)2, 50 mM MOPS pH 8, 60 mM KOAc, 37° C./2 hr",100%
same,HPLC Assay Conv,"substrate […]1 (SEQ ID NO: 13), 300 μM Peptide, 8 μM enzyme, 10 mM Mg(OAc)2, 50 mM MOPS pH 8, 60 mM KOAc, RT/0.5 hr",70%
same,HPLC Assay Conv,"substrate […]1 (SEQ ID NO: 13), 300 μM Peptide, 8 μM enzyme, 10 mM Mg(OAc)2, 50 mM MOPS pH 8, 60 mM KOAc, RT/2 hr",100%
same,HPLC Assay Conv,"substrate […]1 (SEQ ID NO: 13), 300 μM Peptide, 8 μM enzyme, 10 mM Mg(OAc)2, 50 mM MOPS pH 8, 0.2% Tween20, RT/0.5 hr",100%
same,HPLC Assay Conv,"substrate […]1 (SEQ ID NO: 13), 300 μM Peptide, 8 μM enzyme, 10 mM Mg(OAc)2, 50 mM MOPS pH 8, RT/0.5 hr",100%
same,HPLC Assay Conv,"substrate […]1 (SEQ ID NO: 13), 300 μM Peptide, 8 μM enzyme, 50/50 MOPS Mg buffer/RB1, RT/0.5 hr",30%
same,HPLC Assay Conv,"substrate […]1 (SEQ ID NO: 13), 300 μM Peptide, 8 μM enzyme, RB2 + Mg, RT/0.5 hr",5%
same,HPLC Assay Conv,"substrate […]1 (SEQ ID NO: 13), 300 μM Peptide, 8 μM enzyme, RB4, RT/0.5 hr",100%
same,HPLC Assay Conv,"substrate […]1 (SEQ ID NO: 13), 600 μM Peptide, 8 μM enzyme, 10 mM Mg(OAc)2, 50 mM MOPS pH 8, RT/0.5 hr",100%
same,HPLC Assay Conv,"substrate […]{LYSN3}NH2 (SEQ ID NO: 107), 200 μM Peptide, 4 μM enzyme, 10 mM MgCl2, 50 mM MOPS pH 8.0, 37° C./0.5 hr",100%
same,HPLC Assay Conv,"substrate […]{LYSN3}NH2 (SEQ ID NO: 107), 200 μM Peptide, 4 μM enzyme, 10 mM MgCl2, 50 mM MOPS pH 8.0, 37° C./1 hr",100%
same,HPLC Assay Conv,"substrate […]{LYSN3}NH2 (SEQ ID NO: 107), 200 μM Peptide, 8 μM enzyme, 10 mM MgCl2, 50 mM MOPS pH 5.0, RT/0.5 hr",100%
same,HPLC Assay Conv,"substrate […]{LYSN3}NH2 (SEQ ID NO: 107), 200 μM Peptide, 8 μM enzyme, 10 mM MgCl2, 50 mM MOPS pH 5.0, RT/1 hr",100%
same,HPLC Assay Conv,"substrate […]{LYSN3}NH2 (SEQ ID NO: 107), 300 μM Peptide, 4 μM enzyme, 10 mM MgCl2, 50 mM MOPS pH 8.0, 37° C./0.5 hr",100%
same,HPLC Assay Conv,"substrate […]{LYSN3}NH2 (SEQ ID NO: 107), 400 μM Peptide, 8 μM enzyme, 50 mM HEPES pH 8.0, 300 mM NaCl, 1 mM DTT, 5% Glycerol, 32 mM PCA, 37° C./1 hr",100%
same,HPLC Assay Conv,"substrate […]{LYSN3}NH2 (SEQ ID NO: 107), 600 μM Peptide, 0.8 μM enzyme, 10 mM Mg(OAc)2, 50 mM MOPS pH 5.5, RT/0.5 hr",100%
same,HPLC Assay Conv,"substrate […]{LYSN3}NH2 (SEQ ID NO: 107), 600 μM Peptide, 0.8 μM enzyme, 10 mM Mg(OAc)2, 50 mM MOPS pH 6.5, RT/0.5 hr",100%
same,HPLC Assay Conv,"substrate […]{LYSN3}NH2 (SEQ ID NO: 107), 600 μM Peptide, 0.8 μM enzyme, 10 mM Mg(OAc)2, 50 mM MOPS pH 7.5, RT/0.5 hr",100%
same,HPLC Assay Conv,"substrate […]{LYSN3}NH2 (SEQ ID NO: 107), 600 μM Peptide, 0.8 μM enzyme, 10 mM Mg(OAc)2, 50 mM MOPS pH 8.5, RT/0.5 hr",100%
same,HPLC Assay Conv,"substrate […]{LYSN3}NH2 (SEQ ID NO: 107), 1200 μM Peptide, 800 pM enzyme, 10 mM Mg(OAc)2, 50 mM MOPS pH 7.5, RT/0.5 hr",2.70%
same,HPLC Assay Conv,"substrate […]{LYSN3}NH2 (SEQ ID NO: 107), 1200 μM Peptide, 800 pM enzyme, 10 mM Mg(OAc)2, 50 mM MOPS pH 8.5, RT/0.5 hr",6.80%
same,HPLC Assay Conv,"substrate […]{LYSN3}NH2 (SEQ ID NO: 107), 1200 μM Peptide, 0.008 μM enzyme, 10 mM Mg(OAc)2, 50 mM MOPS pH 7.5, RT/0.5 hr",100%
same,HPLC Assay Conv,"substrate […]{LYSN3}NH2 (SEQ ID NO: 107), 1200 μM Peptide, 0.008 μM enzyme, 10 mM Mg(OAc)2, 50 mM MOPS pH 8.5, RT/0.5 hr",100%
same,HPLC Assay Conv,"substrate […]{LYSN3}NH2 (SEQ ID NO: 107), 1200 μM Peptide, 0.08 μM enzyme, 10 mM Mg(OAc)2, 50 mM MOPS pH 5.5, RT/0.5 hr",50%
same,HPLC Assay Conv,"substrate […]{LYSN3}NH2 (SEQ ID NO: 107), 1200 μM Peptide, 0.08 μM enzyme, 10 mM Mg(OAc)2, 50 mM MOPS pH 6.5, RT/0.5 hr",100%
same,HPLC Assay Conv,"substrate […]{LYSN3}NH2 (SEQ ID NO: 107), 1200 μM Peptide, 0.08 μM enzyme, 10 mM Mg(OAc)2, 50 mM MOPS pH 7.5, RT/0.5 hr",100%
same,HPLC Assay Conv,"substrate […]{LYSN3}NH2 (SEQ ID NO: 109), 300 μM Peptide, 4 μM enzyme, 10 mM MgCl2, 50 mM MOPS pH 8.0, 37° C./0.5 hr",100%
same,HPLC Assay Conv,"substrate […]{LYSN3}NH2 (SEQ ID NO: X), 1200 μM Peptide, 0.08 μM enzyme, 10 mM Mg(OAc)2, 50 mM MOPS pH 8.5, RT/0.5 hr",100%
